According to PMC11148020, “PPIA dictates NRF2 stability to promote lung cancer progression” (Nature Communications, 2024):

Target: T1, Recombinant PPIA protein (PPIA WT) (human, UniProt P62937 1-165, 15N-labeled in the NMR experiment)
T1 construct: peptidylprolyl isomerase A (PPIA, CypA), called full-length PPIA for the co-crystal; free in solution for crystal and NMR; also called full-length PPIA; 15N-labeled PPIA; source: E. coli BL21 (DE3), purified (Ni-NTA; for crystallization also Superdex 75 gel filtration)
T1 sequence (P62937 whole entry): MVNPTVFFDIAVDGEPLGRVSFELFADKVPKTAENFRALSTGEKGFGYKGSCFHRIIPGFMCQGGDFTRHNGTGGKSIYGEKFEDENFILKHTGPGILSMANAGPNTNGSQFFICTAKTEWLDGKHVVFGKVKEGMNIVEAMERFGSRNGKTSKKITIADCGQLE
Test: crystal structure; PPIA (50 mg/mL) incubated with PBM peptide (2 mM) at 4 °C for 2 h; hanging-drop co-crystallization, 25 mM Hepes, 25% PEG 3350, 5 mM TCEP, pH 7.5; 1.81 Å
Conditions: both partners purified

binding result: binds
B1: NRF2 fragment PPIA-Binding Motif (PBM) peptide (peptide)
peptide: VAQVAPVD
notes: NRF2 residues 169-176, in the linker between the Neh4 and Neh5 domains; also called NRF2-PBM; source: synthetic peptide
